Results: patent publication US6307020A, “Intracellular antifreeze polypeptides and nucleic acids” (HSC Research and Development Ltd. Partnership, priority 1998, dated 2001)

Columns and labels:
[1] = Circular dichroism and thermal denaturation of liver and skin AFPs; type: physicochemical; conditions: for Tm (temperature at which fraction helix is 0.5): thermal denaturation 0-60° C., CD
Description: CD spectra were measured using a Jasco J-600 spectropolarimeter. A water-jacketed (0.1 cm) quartz cell was used. Concentrations of peptides were calculated from UV-absorbance at 230 nm (OD230 =6.1 mM/L peptide-bonds). The concentrations of peptides for CD measurement were between 0.1-0.2 mg/ml in 0.1M NH4 HCO3, pH 8.5. Thermal denaturation of the peptides were measured by varying temperatures from 0-60° C. with a 5° C. step gradient. After CD measurement at 60° C., the samples were cooled to 0° C. and the extent of refolding was determined. The mean residue ellipticity at a given wavelength [q]1 was expressed in degree cm^2 dmol^-1. Fraction helix was calculated as described by Greenfield and Fasman (1969) Biochemistry 8, 4108-4116, employing 222 nm instead of 208 nm: [formula]
The ellipticity [q]222^coil of each peptide in 6.0 M guanidine hydrochloride at 25° C. was assumed to represent 0% helix formation, and the ellipticity for [q]222^helix 100% helix formation was calculated from J. T. Yang et al. (1986) Methods in Enzymology 130, 208-269: [q]^n= [q]^.infin. (1-k/n); where n is the chain length and k is a wavelength-dependent factor (at 222 nm k=2.5 and [q].infin.=-37,400 degree cm^2 dmol^-1).

[2] = Antifreeze activity measured as thermal hysteresis with a Clifton Nanoliter Osmometer; type: physicochemical
Description: The preferred method of measuring the activity of a skin type AFP is to measure the thermal hysteresis (the difference between the melting and freezing temperatures) of an aqueous solution containing the AFP. This can be done by performing a serial dilution of the AFP-containing aqueous solution, followed by cooling the solution gradually and monitoring the freezing point of the solution. Typically, this is performed using commercially available equipment designed specifically for this purpose, such as nanoliter osmoineter. See, Kao et al. (1986) Can. J. Zool. 64:578-582. A preferred osmometer is the Clifton Nanoliter Osmoineter (Clifton Technical Physics, Hartford, N.Y.). Instructions for using the equipment to perform thermal hysteresis are available from the manufacturer. […]
The activity of a skin-type AFP can be measured using a nanoliter osmometer. Antifreeze activity was measured as thermal hysteresis (the difference between the melting and freezing temperatures), essentially following the procedure of Chakrabartty et al. (1989) J. Biol. Chem. 264: 11313-11316. Proteins were dissolved in 0.1 M NH4 HCO3 and their concentrations were determined by duplicate amino acid analyses. […]
Antifreeze activity was measured as thermal hysteresis (difference between the melting and freezing temperatures) essentially following the procedure of Chakrabartty et al. (1989) J. Biol. Chem. 264, 11307-11312. […]

## sAFP2: skin-type AFP from winter flounder, MDAPAKAAAA TAAAAKAAAEA TAAAAAKAAAA TKAGAAR, SEQ ID NO: 18; identical to protein encoded by F2 (MDAPAKAAAATAAAAKAAAEATAAAAAKAAAATKAGAAR)
[1]; 0° C., pH 8.5, 0.1M NH4HCO3, calculated from ellipticity at 222 nm
  Fraction Helix: 0.61
[1]; at 0° C.
  helical content by circular dichroism: 61%
[1]; measured at 0° C., pH 8.5, 0.1M NH4HCO3
  [Θ]222 mean residue ellipticity: -21,677 deg cm^2 dmol^-1
[1]
  Tm (temperature at which fraction helix is 0.5): 12 °C
[1]; listed as SAFP2
  Tm (temperature at which fraction helix is 0.5): 12.0 °C
[2]; dilutions 0.1 to 7.0 mM in 0.1 M NH4HCO3, FIG. 3
  antifreeze activity (thermal hysteresis) compared with serum AFP HPLC-6: less than half of that observed for HPLC-6
[2]; nanoliter osmometer, 0.1 M NH4HCO3
  antifreeze activity of GST-sAFP2 fusion protein compared with sAFP2: indistinguishable
